The values below come from patent publication US20170198014A1 (UNIVERSITY WASHINGTON THROUGH ITS CENTER FOR …, published 2017).

Substitutions are numbered along the chain they refer to.

The target in this experiment is hemagglutinin H1 (A/California/04/2009) (influenza A virus A/California/04/2009 …, UniProt P26140 18-529). Description: yeast surface display titration.

B1: SB24alt1-1 (designed binder)
chain: ASGMLAISMDTDKISNSFEDCKYFQLYVLSAGWTNTIFNDESGKEEIVKMSVDAIICKNISEENYKKFSKKIEIYHAEGDDVDKNISLFLEGELSKISNP
For B1, the binding result was “no binding”.

B2: SB24solo2 (designed binder)
chain: B1 chain with Q25L, L26I, Y27E, V28L, L29K, S51G, D83N
For the molecule B2, the binding result is given as “no binding”.
